These results are taken from PMC4821807, “Estrogen receptor alpha somatic mutations Y537S and D538G confer breast cancer endocrine resistance by stabilizing the activating function-2 binding conformation” (eLife, 2016).

Like-named read-outs stand apart in the source and are kept apart here.

For series [1], the system named is Y537S mutant ERα. More on the design: method as in Toy et al., 2013. The note with it: breast cancer cells, ref Toy et al., 2013; cited from earlier work.
Series [2] has as its system D538G mutant ERα. More on the design: method as in Toy et al., 2013. As to conditions: breast cancer cells, ref Toy et al., 2013; cited from earlier work.
Series [3] has as its target D538G estrogen receptor α ligand-binding domain (ERα amino acids 304–554), 6×His fusion, biotin-labelled at C417 (human) (UniProt P03372). Put plainly: FRET or BRET; time-resolved FRET, SRC titration, ER pre-saturated with 1 µM E2: SRC3-fluorescein titrated from 3.2×10^-7 to 3.2×10^-12 M into 1 nM biotinylated ERα LBD on 0.25 nM streptavidin-terbium.
The target of series [4] is Y537S estrogen receptor α ligand-binding domain (ERα amino acids 304–554), 6×His fusion, biotin-labelled at C417 (human) (UniProt P03372). The series is described as above.
Series [5] has as its target wild type estrogen receptor α ligand-binding domain (ERα amino acids 304–554), 6×His fusion, biotin-labelled at C417 (human) (UniProt P03372). The description is as above.
Series [6] deals with D538G estrogen receptor α ligand-binding domain (ERα amino acids 304–554), 6×His fusion, biotin-labelled at C417 (human) (UniProt P03372). Briefly: FRET or BRET; time-resolved FRET, SRC titration, no ligand (apo): SRC3-fluorescein titrated from 3.2×10^-7 to 3.2×10^-12 M into 1 nM biotinylated ERα LBD on 0.25 nM streptavidin-terbium; 96-well plates.
The target in series [7] is Y537S estrogen receptor α ligand-binding domain (ERα amino acids 304–554), 6×His fusion, biotin-labelled at C417 (human) (UniProt P03372). The description is as above.
Series [8] concerns the molecule itself. Put plainly: crystal structure; D538G ERα LBD with 1 mM E2 and a 2.5-fold molar excess of GRIP peptide; hanging drop, 25% PEG 3,350, 200 mM MgCl2, 100 mM Tris pH 8.5, 1 mM phenylalanine.
Series [9] addresses D538G ERα LBD (Homo sapiens, UniProt P03372, D538G, form not given). In kind it is binding. As to conditions: for Kd: read-out: SRC-3 NRD Kd. As to the method:
(§1) While bound to the Ni-NTA-agarose resin (Qiagen Inc., Santa Clarita, CA), the ERs were labeled with MAL-dPEG4-biotin (Quanta BioDesign, Powell, OH), site-specifically at C417. The SRC3-NRD construct has 4 cysteines and was labeled non-specifically, also while on the resin, with 5-iodoacetamido fluorescein (Molecular Probes, Invitrogen, Eugene, OR).
(§2) Diffusion-enhanced FRET was determined by a parallel incubation without biotinylated ER-LBD and subtracted as a background signal. […] The data, representing 2–3 replicate experiments, each with duplicate points, were analyzed using GraphPad Prism 4 and are expressed as the EC50 in nM.

For series [10], the target named is WT ERα LBD (Homo sapiens, UniProt P03372). In kind it is binding. As to conditions: for SRC-3 NRD Kd: WT apo (absence of E2). As to the method: as §1, §2
Series [11] deals with Y537S ERα LBD (Homo sapiens, UniProt P03372, Y537S, form not given). In kind it is binding. As to conditions: for Kd: read-out: SRC-3 NRD Kd. As to the method: as §1, §2

Turning to `CC/C(=C(\c1ccc(O)cc1)c1ccc(OCCN(C)C)cc1)c1ccccc1` [TOT, 4-hydroxytamoxifen], the “ablation of transcriptional activity of the mutant” value in [1] and in series [2] was “could not” in each case.

With `C[C@]12CC[C@@H]3c4ccc(O)cc4C[C@@H](CCCCCCCCC[S+]([O-])CCCC(F)(F)C(F)(F)F)[C@H]3[C@@H]1CC[C@@H]2O` (stereo partly shown) [fulvestrant], the “ablation of transcriptional activity of the mutant” value in [1] and in series [2] was “completely ablate” in each case.

In the case of “steroid receptor coactivator 3 nuclear receptor domain (amino acids 627–829), fluorescein-labelled (from UniProt Q9Y6Q9 627-829) (domain or fragment)”, the dissociation constant (Kd) in [3] stood at 3.65 nM; in series [4] it was 0.59 nM; in series [5], 2.67 nM; in series [6], 151 nM; in [7], 13.6 nM.

B1: ERα LBD D538G mutant (crystallisation construct, 6×His-TEV tag removed) (domain or fragment, human)
chain: KRSKKNSLALSLTADQMVSALLDAEPPILYSEYDPTRPFSEASMMGLLTNLADRELVHMINWAKRVPGFVDLTLHDQVHLLECAWLEILMIGLVWRSMEHPGKLLFAPNLLLDRNQGKCVEGMVEIFDMLLATSSRFRMMNLQGEEFVCLKSIILLNSGVYTFLSSTLKSLEEKDHIHRVLDKITDTLIHLMAKAGLTLQQQHQRLAQLLLILSHIRHMSNKGMEHLYSMKCKNVVPLYGLLLEMLDAHRLHAPTS
notes: Unresolved residues were not included in the deposited structures; also called apo D538G; D538G-E2; source: E. coli BL21 (DE3), purified (Ni-NTA, TEV cleavage, Resource Q ion exchange)
As for B1, the binding result in series [8] is on record as “binds”.

B2: SRC3 NRD: steroid receptor coactivator 3 nuclear receptor domain, human, amino acids 627–829, fluorescein labeled (protein)
chain: CSSDDRGHSSLTNSPLDSSCKESSVSVTSPSGVSSSTSGGVSSTSNMHGSLLQEKHRILHKLLQNGNSPAEVAKITAEATGKDTSSITSCGDGNVVKQEQLSPKKKENNALLRYLLDRDDPSDALSKELQPQVEGVDNKMSQCTSSTIPSSSQEKDPKIKTETSEEGSGDLDNLDAILGDLTSSDFYNNSISSNGSHLGTKQQ
modifications: 5-iodoacetamido fluorescein on cysteines, non-specific (4 cysteines; an average of 1.8–2 fluorescein molecules attached); left off: His tag (inferred from the labelling on the resin), end not stated,
B2: the equilibrium dissociation constant (Kd) amounted to 151 ± 20 nM in series [9] (D538G apo (absence of E2)); 3.65 ± 0.4 nM in series [9] (D538G pre-saturated with E2 (1 µM ligand)); 2.67 ± 0.5 nM in [10] (WT saturated with E2 (1 µM ligand), read-out: SRC-3 NRD Kd); 13.6 ± 2 nM in [11] (Y537S apo (absence of E2)); 0.59 ± 0.1 nM in series [11] (Y537S pre-saturated with E2 (1 µM ligand)). In addition, the “SRC3 binding curve plateau, of the maximum” value in [9] (D538G, absence of E2) is listed as “approximately 60%”; in [11] (Y537S, absence of E2), “approximately 60%”. The “SRC-3 NRD Kd” value in series [10] is “no binding was detected”; in [10] (listed as SRC-3 NRD), “No Recruitment”.
